# Data taken from publication PMC12036799 (Metabolism: clinical and experimental, 2025).
# Several values for one entry are separate records, joined by “and”; a condition that tells them apart may be missing. Equal values may be shown once.
# Biological target: the molecule itself
# Assay: dimer-tetramer equilibrium assay
protein,measurement,value
"recombinant ALDOB WT (aldolase B) (enzyme, UniProt Q91Y97 1-364, looked up) MAHRFPALTPEQKKELSEIAQRIVANGKGILAADESVGTMGNRLQRIKVENTEENRRQFRELLFSVDNSISQSIGGVILFHETLYQKDSQGNLFRNVLKEKGIVVGIKLDQGGAPLAGTNKETTIQGLDGLSERCAQYKKDGVDFGKWRAVLRIADQCPSSLAIQENANALARYASICQQNGLVPIVEPEVLPDGDHDLEHCQYVSEKVLAAVYKALNDHHVYLEGTLLKPNMVTAGHACTKKYTPEQVAMATVTALHRTVPAAVPGICFLSGGMSEEDATLNLNAINRCPLPRPWKLSFSYGRALQASALAAWGGKAANKKATQEAFMKRAMANCQAAQGQYVHTGSSGAAATQSLFTASYTY",stoichiometry N,2 and 4
